Target: α4β7 integrin receptor on RPMI8866 cells (human (endogenous in RPMI8866)) (UniProt P13612)
Sequence (P13612 34-1032, chain 1 of 2): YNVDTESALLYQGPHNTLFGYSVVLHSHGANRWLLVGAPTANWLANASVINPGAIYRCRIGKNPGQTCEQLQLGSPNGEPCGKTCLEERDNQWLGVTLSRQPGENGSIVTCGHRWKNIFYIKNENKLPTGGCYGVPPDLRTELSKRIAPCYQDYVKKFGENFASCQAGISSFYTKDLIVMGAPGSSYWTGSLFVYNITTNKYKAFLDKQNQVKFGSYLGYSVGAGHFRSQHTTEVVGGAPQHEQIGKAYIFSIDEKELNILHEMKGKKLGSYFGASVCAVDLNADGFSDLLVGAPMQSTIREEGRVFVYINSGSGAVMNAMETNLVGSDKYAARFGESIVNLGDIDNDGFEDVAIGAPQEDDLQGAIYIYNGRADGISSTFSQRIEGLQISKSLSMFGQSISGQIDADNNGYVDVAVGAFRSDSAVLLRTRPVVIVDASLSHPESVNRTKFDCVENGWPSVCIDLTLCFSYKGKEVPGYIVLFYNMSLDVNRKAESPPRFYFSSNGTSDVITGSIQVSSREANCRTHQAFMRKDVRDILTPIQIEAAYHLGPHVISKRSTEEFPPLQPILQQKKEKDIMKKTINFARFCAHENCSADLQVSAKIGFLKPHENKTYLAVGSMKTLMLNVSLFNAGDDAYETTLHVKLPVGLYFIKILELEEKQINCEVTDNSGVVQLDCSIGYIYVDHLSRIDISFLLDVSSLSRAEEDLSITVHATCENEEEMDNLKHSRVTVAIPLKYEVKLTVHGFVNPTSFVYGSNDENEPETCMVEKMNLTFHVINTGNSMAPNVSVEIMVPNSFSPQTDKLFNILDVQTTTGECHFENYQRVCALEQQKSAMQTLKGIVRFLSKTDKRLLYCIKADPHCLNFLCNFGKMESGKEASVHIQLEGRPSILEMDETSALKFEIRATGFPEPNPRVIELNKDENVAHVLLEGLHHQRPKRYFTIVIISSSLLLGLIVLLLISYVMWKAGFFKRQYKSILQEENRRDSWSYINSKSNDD
Sequence (P26010 20-798, chain 2 of 2, further chain): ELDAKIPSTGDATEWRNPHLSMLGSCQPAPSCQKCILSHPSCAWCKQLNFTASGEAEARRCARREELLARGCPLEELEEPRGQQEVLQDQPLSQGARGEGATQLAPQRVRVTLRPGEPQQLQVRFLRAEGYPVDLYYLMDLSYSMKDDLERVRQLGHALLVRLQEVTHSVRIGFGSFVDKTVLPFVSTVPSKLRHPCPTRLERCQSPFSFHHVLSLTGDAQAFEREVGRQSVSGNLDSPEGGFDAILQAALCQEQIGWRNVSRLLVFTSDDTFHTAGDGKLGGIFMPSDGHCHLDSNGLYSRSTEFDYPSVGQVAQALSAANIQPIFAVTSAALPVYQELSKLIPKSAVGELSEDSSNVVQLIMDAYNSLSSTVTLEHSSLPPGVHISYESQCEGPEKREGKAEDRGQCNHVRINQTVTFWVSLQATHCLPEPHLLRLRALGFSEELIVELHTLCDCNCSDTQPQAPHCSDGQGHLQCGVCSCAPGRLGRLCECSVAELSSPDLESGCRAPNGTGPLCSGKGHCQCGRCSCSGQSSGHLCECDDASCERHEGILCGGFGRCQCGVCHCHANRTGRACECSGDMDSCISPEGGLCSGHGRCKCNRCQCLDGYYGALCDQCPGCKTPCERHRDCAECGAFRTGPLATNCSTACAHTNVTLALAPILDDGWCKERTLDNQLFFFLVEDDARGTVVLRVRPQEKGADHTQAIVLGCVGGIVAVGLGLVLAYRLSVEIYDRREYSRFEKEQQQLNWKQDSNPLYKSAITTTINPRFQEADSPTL

## HIV-1 envelope protein on 92TH023 virions (primary virus, subtype CRF01_AE) (natural protein)
  % inhibition of α4β7 binding to MAdCAM-1 at p24 0.75–3 ng/well: 25 to 35%
